Measured values as given in patent US20030027246A1 (published 2003).
Read-outs that look alike come from different tables or passages of the source.

How the values were obtained:
[1] = target: T1, membrane-bound HLA-A0201 molecule on T2 cells (human); experiment: T2 cell HLA-A0201 stabilisation, BB7.2 staining, flow cytometry
T1 construct: whole, on cells; also called human MHC class 1 molecule
Description: (§1) Thus, the detection of this specific epitope is indicative of stable membrane-bound HLA-A0201 molecules loaded with peptide.
(§2) T2 cells were propagated in Iscove's complete medium (Iscove's medium supplemented with 10% heat-inactivated bovine serum, 120.0 units per ml of penicillin G sodium, 120 μg per ml of streptomycin sulphate, and 0.35 mg per ml of L-glutamine). The ability of PSMA peptides (Table 1) to bind and stabilize surface HLA-A0201 molecules on T2 cells was determined utilizing a protocol documented in the art (Deng, Y. (1997) J Immunol 158:1507-1515). In essence, 0.5×10⁶ T2 cells were incubated with 125.0 μM of the test peptide in 200.0 μl of serum-free culture medium (Iscove's medium supplemented with 120.0 units per ml of penicillin G sodium, 120.0 μg per ml of streptomycin sulphate and 0.35 mg per ml of L-glutamine) overnight at 37° C. Subsequently, cells were washed twice with Iscove's medium (without bovine serum) to remove free PSMA peptide. To the cell pellet was added 1.0 ml of complete Iscove's medium (supplemented with fetal bovine serum (10% final)) containing 5.0 μg per ml of brefeldin A (Sigma), 12.5 μg per ml of anisomycin (Sigma) and 5.0 μg per ml of cyclohexamide (Sigma). The samples were incubated for 3.0 hr in a 37° C. CO₂ incubator. The cells were subsequently incubated 30 min on ice prior to two washes with ice-cold PBA (phosphate buffered saline (pH 7.2) containing 2.0% bovine serum). 100.0 μl of PBA containing 5.0 μg of monoclonal antibody BB7.2 was added to each test sample. The reaction was allowed to proceed on ice for 45 min. Cells were then washed three times with ice-cold PBA. The binding of BB7.2 was detected via the addition of 100.0 μl of PBA containing 1.0 μg of goat anti-mouse IgG-Fc fluorescein (FITC) conjugate (BETHYL Laboratories Inc.). After a 30 min incubation on ice, cells were twice washed with ice-cold PBA, and twice with ice-cold PBS (pH 7.2). […] Samples were analyzed by Flow Cytometry. Results were expressed in units of Fluorescence Index (FI), calculated by the equation: […]

[2] = target: T1, membrane-bound HLA-A0201 molecule on T2 …; experiment: T2 cell HLA-A0201 stabilisation at 125.0 µM peptide, BB7.2 staining, flow cytometry
Description: as §1, §2

[3] = target: T1, membrane-bound HLA-A0201 molecule on T2 …; experiment: T2 cell HLA-A0201 stabilisation, BB7.2 staining, flow cytometry; remark: listed apart in the source
Description: as §2, with “The samples were incubated for 3.0 hr in a 37° C. CO₂ incubator. The cells were subsequently incubated 30 min on ice prior to two washes with ice-cold PBA (phosphate buffered saline (pH 7.2) containing 2.0% bovine serum). 100.0 μl of PBA containing 5.0 μg of monoclonal antibody BB7.2 was added to each test sample. The reaction was allowed to proceed on ice for 45 min. Cells were then washed three times with ice-cold PBA.” left out, “Inc.).” for “Inc.). After a 30 min incubation on ice, cells were twice washed with ice-cold PBA, and twice with ice-cold PBS (pH 7.2).”

Row | Binder | binding result [1] | Fluorescence Index (FI) [2] | also measured
1 | LLHETDSAV (also called PSMA 4-12) [CLP-326] | – | 0.6 FI | –
2 | MMNDQLMFL (also called CPL-336; PSMA 663-671) [CLP-336] | – | 3.7 FI | –
3 | LDSVELAHY (Negative control; also called negative control peptide; PSMA 105-113) [CLP-324] | – | – | binding result [3]: no binding (tested: 125.0 µM peptide)
4 | LMYSLVHNL (also called PSMA 469-477) [CLP-333] | – | 2.7 FI | –

More lines, main results first:

Row | binding result [1] | Fluorescence Index (FI) [2] | Binder | also measured
5 | no binding | – | PMFKYHLTV (also called PSMA 568-576) [CLP-334] | –
6 | no binding | – | NMKAFLDEL (also called PSMA 57-65) [CLP-329] | –
7 | no binding | – | NLNGAGDPL (also called PSMA 260-268) [CLP-331] | –
